± gives the uncertainty stated by the source.
B1: REST corepressor 3, residues 87 to 134; numbered along this chain, Q9P2K3 (parent)
chain: DEWTVEDKVLFEQAFSFHGKSFHRIQQMLPDKTIASLVKYYYSWKKTR

Variants of: B1
Assay: abundance fitness (aPCA) (normalised: wild type 0, dead -1); higher = more abundant; growth selection in yeast, the domain comes from the species named
Details: Homo sapiens
DEWTVEDKVLFEQGFSFHGKSFHRIQQMLPDKTIASLVKYYYSWKKTR [A14G] gave an abundance fitness of -0.73 ± 0.18.
DEWTVEDKVLFEQTFSFHGKSFHRIQQMLPDKTIASLVKYYYSWKKTR [A14T] gave an abundance fitness of -0.609 ± 0.31.
Work on DEWTVEDKVLFEQSFSFHGKSFHRIQQMLPDKTIASLVKYYYSWKKTR [A14S] yielded an abundance fitness of -0.993 ± 0.36.
Work on DEWTVEDKVLFEQWFSFHGKSFHRIQQMLPDKTIASLVKYYYSWKKTR [A14W] yielded an abundance fitness of -0.664 ± 0.21.
With DEWTVEDKVLFEQCFSFHGKSFHRIQQMLPDKTIASLVKYYYSWKKTR [A14C] the abundance fitness was -0.71 ± 0.29.
With DEWTVEDKVLFEQKFSFHGKSFHRIQQMLPDKTIASLVKYYYSWKKTR [A14K] the abundance fitness was -0.393 ± 0.41.
Work on DEWTVEDKVLFEQLFSFHGKSFHRIQQMLPDKTIASLVKYYYSWKKTR [A14L] yielded an abundance fitness of -0.392 ± 0.19.
DEWTVEDKVLFEQIFSFHGKSFHRIQQMLPDKTIASLVKYYYSWKKTR [A14I] showed an abundance fitness of -0.655 ± 0.44.
For DEWTVEDKVLFEQYFSFHGKSFHRIQQMLPDKTIASLVKYYYSWKKTR [A14Y], the abundance fitness was -0.578 ± 0.38.
Work on DEWTVEDKVLFEQEFSFHGKSFHRIQQMLPDKTIASLVKYYYSWKKTR [A14E] yielded an abundance fitness of -0.811 ± 0.46.
Variant DEWTVEDKVLFEQFFSFHGKSFHRIQQMLPDKTIASLVKYYYSWKKTR [A14F] has an abundance fitness of -0.453 ± 0.33.
For DEWTVEDKVLFEQRFSFHGKSFHRIQQMLPDKTIASLVKYYYSWKKTR [A14R], the abundance fitness was -0.635 ± 0.2.
In the case of DEWTVEDKVLFESAFSFHGKSFHRIQQMLPDKTIASLVKYYYSWKKTR [Q13S], the abundance fitness is reported as -0.584 ± 0.21.
In the case of DEWTVEDKVLFEDAFSFHGKSFHRIQQMLPDKTIASLVKYYYSWKKTR [Q13D], the abundance fitness is reported as -0.644 ± 0.46.
Variant DEWTVEDKVLFEGAFSFHGKSFHRIQQMLPDKTIASLVKYYYSWKKTR [Q13G] has an abundance fitness of -0.948 ± 0.23.
For DEWTVEDKVLFECAFSFHGKSFHRIQQMLPDKTIASLVKYYYSWKKTR [Q13C], the abundance fitness was -1.02 ± 0.46.
Work on DEWTVEDKVLFEWAFSFHGKSFHRIQQMLPDKTIASLVKYYYSWKKTR [Q13W] yielded an abundance fitness of -0.742 ± 0.23.
For DEWTVEDKVLFELAFSFHGKSFHRIQQMLPDKTIASLVKYYYSWKKTR [Q13L], the abundance fitness was -0.679 ± 0.18.
DEWTVEDKVLFEAAFSFHGKSFHRIQQMLPDKTIASLVKYYYSWKKTR [Q13A] showed an abundance fitness of -0.389 ± 0.18.
DEWTVEDKVLFERAFSFHGKSFHRIQQMLPDKTIASLVKYYYSWKKTR [Q13R] gave an abundance fitness of -0.46 ± 0.16.
With DEWTVEDKVLFEIAFSFHGKSFHRIQQMLPDKTIASLVKYYYSWKKTR [Q13I] the abundance fitness was -0.56 ± 0.23.
With DEWTVEDKVLFEHAFSFHGKSFHRIQQMLPDKTIASLVKYYYSWKKTR [Q13H] the abundance fitness was -0.234 ± 0.4.
With DEWTVEDKVLFEMAFSFHGKSFHRIQQMLPDKTIASLVKYYYSWKKTR [Q13M] the abundance fitness was -0.101 ± 0.29.
For DEWTVEDKVLFEKAFSFHGKSFHRIQQMLPDKTIASLVKYYYSWKKTR [Q13K], the abundance fitness was -0.458 ± 0.26.
In the case of DEWTVEDKVLFEEAFSFHGKSFHRIQQMLPDKTIASLVKYYYSWKKTR [Q13E], the abundance fitness is reported as -0.288 ± 0.2.
For DEWTVEDKVLFEFAFSFHGKSFHRIQQMLPDKTIASLVKYYYSWKKTR [Q13F], the abundance fitness was -0.614 ± 0.22.
DEWTVEDKVLFEQAFCFHGKSFHRIQQMLPDKTIASLVKYYYSWKKTR [S16C] gave an abundance fitness of -0.607 ± 0.25.
Variant DEWTVEDKVLFEQAFDFHGKSFHRIQQMLPDKTIASLVKYYYSWKKTR [S16D] has an abundance fitness of 0.149 ± 0.12.
For DEWTVEDKVLFEQAFAFHGKSFHRIQQMLPDKTIASLVKYYYSWKKTR [S16A], the abundance fitness was -0.077 ± 0.12.
Variant DEWTVEDKVLFEQAFEFHGKSFHRIQQMLPDKTIASLVKYYYSWKKTR [S16E] has an abundance fitness of 0.339 ± 0.13.
Work on DEWTVEDKVLFEQAGSFHGKSFHRIQQMLPDKTIASLVKYYYSWKKTR [F15G] yielded an abundance fitness of -0.731 ± 0.18.
In the case of DEWTVEDKVLFEQAWSFHGKSFHRIQQMLPDKTIASLVKYYYSWKKTR [F15W], the abundance fitness is reported as -0.637 ± 0.34.
In the case of DEWTVEDKVLFEQACSFHGKSFHRIQQMLPDKTIASLVKYYYSWKKTR [F15C], the abundance fitness is reported as 0.29 ± 0.27.
DEWTVEDKVLFEQAPSFHGKSFHRIQQMLPDKTIASLVKYYYSWKKTR [F15P] gave an abundance fitness of -0.881 ± 0.26.
For DEWTVEDKVLFEQALSFHGKSFHRIQQMLPDKTIASLVKYYYSWKKTR [F15L], the abundance fitness was -0.658 ± 0.25.
Work on DEWTVEDKVLFEQAKSFHGKSFHRIQQMLPDKTIASLVKYYYSWKKTR [F15K] yielded an abundance fitness of -0.585 ± 0.32.
DEWTVEDKVLFEQAVSFHGKSFHRIQQMLPDKTIASLVKYYYSWKKTR [F15V] showed an abundance fitness of -0.392 ± 0.12.
With DEWTVEDKVLFEQATSFHGKSFHRIQQMLPDKTIASLVKYYYSWKKTR [F15T] the abundance fitness was -0.604 ± 0.45.
With DEWTVEDKVLFEQASSFHGKSFHRIQQMLPDKTIASLVKYYYSWKKTR [F15S] the abundance fitness was -0.632 ± 0.25.
With DEWTVEDKVLFEQARSFHGKSFHRIQQMLPDKTIASLVKYYYSWKKTR [F15R] the abundance fitness was -0.675 ± 0.2.
DEWTVEDKVLPEQAFSFHGKSFHRIQQMLPDKTIASLVKYYYSWKKTR [F11P] gave an abundance fitness of -0.834 ± 0.39.
DEWTVEDKVLSEQAFSFHGKSFHRIQQMLPDKTIASLVKYYYSWKKTR [F11S] gave an abundance fitness of -0.736 ± 0.27.
DEWTVEDKVLVEQAFSFHGKSFHRIQQMLPDKTIASLVKYYYSWKKTR [F11V] gave an abundance fitness of -0.812 ± 0.2.
With DEWTVEDKVLFDQAFSFHGKSFHRIQQMLPDKTIASLVKYYYSWKKTR [E12D] the abundance fitness was -0.07 ± 0.23.
DEWTVEDKVLFTQAFSFHGKSFHRIQQMLPDKTIASLVKYYYSWKKTR [E12T] showed an abundance fitness of -0.252 ± 0.27.
DEWTVEDKVLFGQAFSFHGKSFHRIQQMLPDKTIASLVKYYYSWKKTR [E12G] gave an abundance fitness of -0.708 ± 0.31.
Variant DEWTVEDKVLFLQAFSFHGKSFHRIQQMLPDKTIASLVKYYYSWKKTR [E12L] has an abundance fitness of -0.476 ± 0.39.
DEWTVEDKVLFSQAFSFHGKSFHRIQQMLPDKTIASLVKYYYSWKKTR [E12S] showed an abundance fitness of -0.822 ± 0.33.
In the case of DEWTVEDKVLFKQAFSFHGKSFHRIQQMLPDKTIASLVKYYYSWKKTR [E12K], the abundance fitness is reported as -0.643 ± 0.34.
Work on DEWTVEDKVLFVQAFSFHGKSFHRIQQMLPDKTIASLVKYYYSWKKTR [E12V] yielded an abundance fitness of -0.801 ± 0.22.
In the case of DEWTVEDKVLFRQAFSFHGKSFHRIQQMLPDKTIASLVKYYYSWKKTR [E12R], the abundance fitness is reported as -1.01 ± 0.48.
For DEWTVEDKVLFIQAFSFHGKSFHRIQQMLPDKTIASLVKYYYSWKKTR [E12I], the abundance fitness was -0.24 ± 0.29.
DEWTVEDKVLFQQAFSFHGKSFHRIQQMLPDKTIASLVKYYYSWKKTR [E12Q] gave an abundance fitness of -0.528 ± 0.46.
Work on DEWTVEDKVLFAQAFSFHGKSFHRIQQMLPDKTIASLVKYYYSWKKTR [E12A] yielded an abundance fitness of -0.582 ± 0.29.

Source: the Human Domainome abundance scans (Beltran et al. 2025)
